FireProtDB (doi:10.1016/j.ijbiomac.2020.03.166)
“And” between values parts separate entries of the source, which are not always exact repeats. Equal values may be shown once.

Conditions: Leishmania major, pH 7.5, potassium phosphate, NaCl, transition: 2, whole UniProt chain shown
[1] = GdnHCl, fluorescence emission maxima
[2] = Urea, fluorescence emission maxima

B1: Peptidyl-prolyl cis-trans isomerase wild type, Q4QII4 (protein)
chain: MPTSSWRAEHLLIKHSGSRNPVSRRTGQPTTISYEEAVTELQKWCQSINDGKVTFEEAARQRSDCSSYARGGDLGVFGPGEMMKPFEDATKSLEVGQVSGIVVTDSGVHIIKRIA
- denaturant m value (GdnHCl, CD): 3.32 kcal/mol/M
- denaturant midpoint (higher = more stable) (GdnHCl, CD): 0.98 M
- unfolding free energy (GdnHCl, CD): 3.27 kcal/mol
- denaturant m value (GdnHCl, anisotropy): 3.87 kcal/mol/M
- denaturant midpoint (higher = more stable) (GdnHCl, anisotropy): 1.16 M
- unfolding free energy (GdnHCl, anisotropy): 4.51 kcal/mol
- denaturant m value [1]: 4.3 kcal/mol/M
- denaturant midpoint (higher = more stable) [1]: 1.1 M
- unfolding free energy [1]: 4.74 kcal/mol
- denaturant m value (GdnHCl, fluorescence intensity): 4.61 kcal/mol/M
- denaturant midpoint (higher = more stable) (GdnHCl, fluorescence intensity): 0.97 M
- unfolding free energy (GdnHCl, fluorescence intensity): 4.48 kcal/mol
- unfolding enthalpy (calorimetric) (Thermal, DSC): 36.6 kcal/mol and 55.1 kcal/mol
- denaturant m value (Urea, CD): 1.38 kcal/mol/M
- denaturant midpoint (higher = more stable) (Urea, CD): 4.12 M
- unfolding free energy (Urea, CD): 5.69 kcal/mol
- denaturant m value (Urea, anisotropy): 1.2 kcal/mol/M
- denaturant midpoint (higher = more stable) (Urea, anisotropy): 4.15 M
- unfolding free energy (Urea, anisotropy): 4.99 kcal/mol
- denaturant m value [2]: 1.28 kcal/mol/M
- denaturant midpoint (higher = more stable) [2]: 4.78 M
- unfolding free energy [2]: 5.12 kcal/mol
- denaturant m value (Urea, fluorescence intensity): 1.39 kcal/mol/M
- denaturant midpoint (higher = more stable) (Urea, fluorescence intensity): 3.53 M
- unfolding free energy (Urea, fluorescence intensity): 4.91 kcal/mol
